Experimental data from article PMC9425028, “The complex formation of MASP-3 with pattern recognition molecules of the lectin complement pathway retains MASP-3 in the circulation” (Frontiers in Immunology, 2022).

Tests used:
Assay in all cases: ELISA; sandwich ELISA: 10 ug each of rmMASP-3-PA and rmMASP-3-ALFA mixed, dialysed against TBS/10 mM EDTA 24 h at 4°C, then against TBS/5 mM CaCl2 24 h at 4°C; 0.14 uM of each, serially diluted in 20% Blocking One in TBS/Ca; captured on anti-PA tag antibody, 30 min room temperature; detected with HRP-conjugated anti-ALFA nanobody
Conditions in all cases: both partners purified
[1] = target: T1, wild-type recombinant mouse MASP-3 fused with PA-tag (WT rmMASP-3-PA) (mouse, UniProt P98064-2 25-733)
T1 construct: Secreted from CHO cells, purified as a proenzyme of about 110 kDa; in the circulation partly cleaved into H-chain and L-chain (active form); also called WT-PA; source: CHO cells, transfected, culture supernatant, purified (anti-PA tag antibody beads); not shown: PA tag (human podoplanin dodecapeptide), C-terminal, kept
T1 sequence (looked up): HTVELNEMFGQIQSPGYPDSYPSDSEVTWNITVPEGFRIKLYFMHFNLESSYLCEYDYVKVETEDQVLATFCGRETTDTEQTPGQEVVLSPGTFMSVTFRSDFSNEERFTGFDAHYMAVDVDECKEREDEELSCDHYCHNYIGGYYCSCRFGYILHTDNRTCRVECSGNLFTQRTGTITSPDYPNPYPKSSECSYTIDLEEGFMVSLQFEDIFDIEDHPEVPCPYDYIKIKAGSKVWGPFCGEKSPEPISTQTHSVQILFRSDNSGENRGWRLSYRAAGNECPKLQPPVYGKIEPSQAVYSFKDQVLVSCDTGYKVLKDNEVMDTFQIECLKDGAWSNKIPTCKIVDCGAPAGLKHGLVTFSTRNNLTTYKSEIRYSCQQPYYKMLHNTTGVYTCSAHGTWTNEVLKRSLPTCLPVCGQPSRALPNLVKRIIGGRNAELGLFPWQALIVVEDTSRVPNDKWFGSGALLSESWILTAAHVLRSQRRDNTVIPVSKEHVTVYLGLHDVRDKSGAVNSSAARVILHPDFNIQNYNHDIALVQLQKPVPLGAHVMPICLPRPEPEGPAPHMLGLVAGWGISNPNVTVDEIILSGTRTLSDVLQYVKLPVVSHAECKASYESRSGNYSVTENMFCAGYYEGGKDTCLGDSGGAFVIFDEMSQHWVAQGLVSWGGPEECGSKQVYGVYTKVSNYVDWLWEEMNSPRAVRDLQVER

[2] = target: T2, E49A mutant recombinant mouse MASP-3 fused with PA-tag (mouse, UniProt P98064-2 25-733, E49A)
T2 construct: Made from the pCAG-Bsd PA tag-C/WT rmMASP-3 plasmid by site-directed mutagenesis; also called E49A rmMASP-3-PA; mutant rmMASP-3-PA; source: CHO cells, transfected, culture supernatant, purified (anti-PA tag antibody beads); not shown: PA tag (human podoplanin dodecapeptide), C-terminal, kept
T2 sequence (looked up): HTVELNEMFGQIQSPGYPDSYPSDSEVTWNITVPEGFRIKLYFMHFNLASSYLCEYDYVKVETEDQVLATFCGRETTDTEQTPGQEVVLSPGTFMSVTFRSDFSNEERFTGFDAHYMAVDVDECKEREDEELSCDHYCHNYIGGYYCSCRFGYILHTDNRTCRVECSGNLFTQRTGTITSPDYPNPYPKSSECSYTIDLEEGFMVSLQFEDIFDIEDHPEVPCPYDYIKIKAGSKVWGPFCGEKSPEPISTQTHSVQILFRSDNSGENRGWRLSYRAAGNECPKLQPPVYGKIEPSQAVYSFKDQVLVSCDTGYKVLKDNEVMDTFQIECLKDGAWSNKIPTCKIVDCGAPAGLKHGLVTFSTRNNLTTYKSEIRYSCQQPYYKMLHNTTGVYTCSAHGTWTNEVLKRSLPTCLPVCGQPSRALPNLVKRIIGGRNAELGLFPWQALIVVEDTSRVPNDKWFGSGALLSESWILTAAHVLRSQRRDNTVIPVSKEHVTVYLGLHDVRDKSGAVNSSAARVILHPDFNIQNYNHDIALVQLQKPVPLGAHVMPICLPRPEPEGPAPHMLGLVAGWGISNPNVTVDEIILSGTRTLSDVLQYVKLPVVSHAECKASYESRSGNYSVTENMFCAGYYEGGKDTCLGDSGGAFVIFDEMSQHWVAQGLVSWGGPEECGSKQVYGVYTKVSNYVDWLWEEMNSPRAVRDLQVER

[3] = target: T3, H218A mutant recombinant mouse MASP-3 fused with PA-tag (mouse, UniProt P98064-2 25-733, H218A)
T3 construct: Made from the pCAG-Bsd PA tag-C/WT rmMASP-3 plasmid by site-directed mutagenesis; also called H218A rmMASP-3-PA; mutant rmMASP-3-PA; source: CHO cells, transfected, culture supernatant, purified (anti-PA tag antibody beads); not shown: PA tag (human podoplanin dodecapeptide), C-terminal, kept
T3 sequence (looked up): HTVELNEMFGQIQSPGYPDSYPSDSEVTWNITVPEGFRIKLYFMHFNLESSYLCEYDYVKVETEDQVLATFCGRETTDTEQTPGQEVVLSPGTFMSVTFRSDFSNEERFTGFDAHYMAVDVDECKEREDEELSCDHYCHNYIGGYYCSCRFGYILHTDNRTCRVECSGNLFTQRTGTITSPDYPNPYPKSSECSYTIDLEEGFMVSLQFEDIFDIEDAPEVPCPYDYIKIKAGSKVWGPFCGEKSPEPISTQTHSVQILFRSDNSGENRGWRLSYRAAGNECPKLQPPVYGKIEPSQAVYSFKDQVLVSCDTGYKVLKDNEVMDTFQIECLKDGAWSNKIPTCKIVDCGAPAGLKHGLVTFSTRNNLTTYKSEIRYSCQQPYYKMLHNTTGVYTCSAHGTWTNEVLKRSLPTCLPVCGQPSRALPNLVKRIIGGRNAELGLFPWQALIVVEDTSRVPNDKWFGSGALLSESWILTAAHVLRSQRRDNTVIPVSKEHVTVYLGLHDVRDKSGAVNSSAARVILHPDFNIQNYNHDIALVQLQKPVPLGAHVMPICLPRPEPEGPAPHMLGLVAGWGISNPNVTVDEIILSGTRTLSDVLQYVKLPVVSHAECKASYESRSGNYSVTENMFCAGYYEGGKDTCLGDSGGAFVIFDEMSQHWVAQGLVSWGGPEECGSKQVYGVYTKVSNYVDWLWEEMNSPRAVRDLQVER

[4] = target: T4, Y225A mutant recombinant mouse MASP-3 fused with PA-tag (mouse, UniProt P98064-2 25-733, Y225A)
T4 construct: Made from the pCAG-Bsd PA tag-C/WT rmMASP-3 plasmid by site-directed mutagenesis; also called Y225A rmMASP-3-PA; mutant rmMASP-3-PA; source: CHO cells, transfected, culture supernatant, purified (anti-PA tag antibody beads); not shown: PA tag (human podoplanin dodecapeptide), C-terminal, kept
T4 sequence (looked up): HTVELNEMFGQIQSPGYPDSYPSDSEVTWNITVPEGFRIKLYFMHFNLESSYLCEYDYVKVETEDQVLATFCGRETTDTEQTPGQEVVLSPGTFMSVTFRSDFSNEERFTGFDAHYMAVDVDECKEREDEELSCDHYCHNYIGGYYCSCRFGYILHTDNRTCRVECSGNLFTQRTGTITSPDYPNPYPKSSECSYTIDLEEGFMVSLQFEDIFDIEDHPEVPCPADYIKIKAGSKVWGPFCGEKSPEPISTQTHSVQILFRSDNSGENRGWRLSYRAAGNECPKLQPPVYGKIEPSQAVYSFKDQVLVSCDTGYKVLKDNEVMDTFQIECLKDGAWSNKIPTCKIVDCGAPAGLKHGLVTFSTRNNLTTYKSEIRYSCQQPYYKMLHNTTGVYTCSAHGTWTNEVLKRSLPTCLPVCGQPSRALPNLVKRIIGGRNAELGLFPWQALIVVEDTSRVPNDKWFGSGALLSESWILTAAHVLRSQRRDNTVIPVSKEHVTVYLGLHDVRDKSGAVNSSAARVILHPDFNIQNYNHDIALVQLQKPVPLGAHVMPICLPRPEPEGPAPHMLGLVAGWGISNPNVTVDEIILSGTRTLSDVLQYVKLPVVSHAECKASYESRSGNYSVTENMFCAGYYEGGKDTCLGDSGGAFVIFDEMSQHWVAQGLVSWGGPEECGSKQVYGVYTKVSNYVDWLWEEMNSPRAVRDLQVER

Measured: binding result

B1: wild-type recombinant mouse MASP-3 with ALFA tag (WT rmMASP-3-ALFA) (enzyme, UniProt P98064-2 25-733, looked up)
chain: HTVELNEMFGQIQSPGYPDSYPSDSEVTWNITVPEGFRIKLYFMHFNLESSYLCEYDYVKVETEDQVLATFCGRETTDTEQTPGQEVVLSPGTFMSVTFRSDFSNEERFTGFDAHYMAVDVDECKEREDEELSCDHYCHNYIGGYYCSCRFGYILHTDNRTCRVECSGNLFTQRTGTITSPDYPNPYPKSSECSYTIDLEEGFMVSLQFEDIFDIEDHPEVPCPYDYIKIKAGSKVWGPFCGEKSPEPISTQTHSVQILFRSDNSGENRGWRLSYRAAGNECPKLQPPVYGKIEPSQAVYSFKDQVLVSCDTGYKVLKDNEVMDTFQIECLKDGAWSNKIPTCKIVDCGAPAGLKHGLVTFSTRNNLTTYKSEIRYSCQQPYYKMLHNTTGVYTCSAHGTWTNEVLKRSLPTCLPVCGQPSRALPNLVKRIIGGRNAELGLFPWQALIVVEDTSRVPNDKWFGSGALLSESWILTAAHVLRSQRRDNTVIPVSKEHVTVYLGLHDVRDKSGAVNSSAARVILHPDFNIQNYNHDIALVQLQKPVPLGAHVMPICLPRPEPEGPAPHMLGLVAGWGISNPNVTVDEIILSGTRTLSDVLQYVKLPVVSHAECKASYESRSGNYSVTENMFCAGYYEGGKDTCLGDSGGAFVIFDEMSQHWVAQGLVSWGGPEECGSKQVYGVYTKVSNYVDWLWEEMNSPRAVRDLQVER
notes: The fragment was put into the pCAG-Bsd PA tag-C vector; also called WT-ALFA; source: CHO cells, transfected, culture supernatant, purified (ALFA Selector ST); not shown: ALFA tag, C-terminal, kept
binds: all assays above
